Experimental data from IntAct's records for PubMed 14625560.

B1: Cell cycle serine/threonine-protein kinase hsk1 (Schizosaccharomyces pombe (strain ATCC 38366 / 972)), P50582 (parent)
chain: MAEAHITLSPKVTHEQQTDIDSECEITEVDDENVNENKSQEMIQDIPARDREEIENITRTFVELQENYRLIEKIGEGTFSSVYKAEDLHYGRYINDWDIQSEVLKESSFGKEKIPVNEDSRKPKYVAIKKIYATSSPARIYNELEILYLLRGSSVIAPLITALRNEDQVLVVLPYYEHTDFRQYYSTFSYRDMSIYFRCLFQAMQQTQTLGIIHRDIKPSNFLFDVRTKHGVLVDFGLAERYDGRQQSHSCRCTNSNAAELAHDFSIAQETSLGYIKNDTRPSKRANRAGTRGFRAPEVLFKCSSQSPKVDIWSAGVILLSFLTKRFPMFNSKDDVDALMEIACIFGKSEMRQCAALHGCTFETNVSTLTEKRVNFRKLILWASCGSASIYKEKLRHKPSQEERLCLDFLEKCLELDCNKRISAEEALDHDFLYLDNLAYEKKDDDTAFDNSFGETSFEKDEDLTAKHLSHILDFKEQEETDEPTSLSKRKRSIDEILPNDALQDGA
partner: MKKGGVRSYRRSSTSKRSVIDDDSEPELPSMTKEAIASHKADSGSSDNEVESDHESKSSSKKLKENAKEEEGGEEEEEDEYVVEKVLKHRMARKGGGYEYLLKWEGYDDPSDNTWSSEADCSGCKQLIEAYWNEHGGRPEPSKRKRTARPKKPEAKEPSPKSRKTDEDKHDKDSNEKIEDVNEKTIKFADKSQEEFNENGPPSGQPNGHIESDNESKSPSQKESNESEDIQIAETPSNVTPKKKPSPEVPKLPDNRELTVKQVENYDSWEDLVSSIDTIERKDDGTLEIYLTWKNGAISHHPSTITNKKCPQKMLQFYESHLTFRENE

Variants of: B1
Settings: with swi6_schpo swi6, P40381

| Variant | effect of a mutation on the interaction |
| --- | --- |
| S314I | decreasing interaction |
